This note sets out measurements from publication PMC10689251.

The test has as its target RuBisCO large subunit CbbL (Cyanobium sp. PCC 7001). The test is described as follows: cryo-EM structure; single-particle analysis of RuBisCO particles spilled from broken native α-carboxysomes of Cyanobium sp. PCC 7001 (sample ~1 mg/mL in TEMB buffer, graphene oxide coated grids); refined with D4 symmetry (2.87 Å) and without symmetry (3.79 Å); density for RuBP and magnesium in the active site.

Substance “RuBisCO large subunit CbbL (natural protein)” came in with a stoichiometry N of 8.
